Reference: the supplement of paper PMC9170038

System: MS2 coat protein
Assay: apparent KD of MS2 coat protein; designed switch direction (-1 OFF switch, 1 ON switch): 1; higher = weaker reporter binding
Method in brief: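 Three titration conditions were used: no input, 200 uM small-molecule ligand, and an oligonucleotide input. In each, SNAP-549-labelled MS2 coat protein was raised from 0.7 or 1.5 nM, doubling, to 3 µM over designed RNA switches transcribed on Illumina chips by stalled E. coli RNA polymerase. Curve fits of normalised cluster fluorescence gave values whose per-design median over clusters is the apparent KD.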

[1] = input ligand: microRNA oligo, concentration not stated
[2] = Eterna round: R95, input ligand: FMN 200 uM
[3] = Eterna round: R95, input ligand: microRNA oligo, concentration not stated
[4] = Eterna round: R95, input ligand: none

| Sequence | apparent KD of MS2 coat protein (input ligand: FMN 200 uM) | apparent KD of MS2 coat protein [1] | apparent KD of MS2 coat protein (input ligand: none) | apparent KD of MS2 coat protein [2] | apparent KD of MS2 coat protein [3] | apparent KD of MS2 coat protein [4] |
| --- | --- | --- | --- | --- | --- | --- |
| UUGUUUGGUAAAAUACAUGAGGAUCACCCAUGUUAUGGUGCAGAGGAUAUGCAUGUUUGAUUGAAGCAGAAGGCUGUAAGUUGU [JR_SSNG3_Sub036] (Eterna round: R96, puzzle: Same State NG 3) | 35.7 nM | 35.5 nM | 43.7 nM |  |  |  |
| UUGUUUUGAAAUUUACAUGAGGAUCACCCAUGUCGUGAGACAGAGGAUAUACAGGAAUGUAGGUAGUAGAAGGCUGUUUUGUGU [JR_SSNG3_Sub100] (Eterna round: R96, puzzle: Same State NG 3) | 49.5 nM | 97.6 nM | 123 nM |  |  |  |
| UUGUUUUGUAAUUAACAUGAGGAUCACCCAUGUCUUGGCUCAGAGGAUAUACAUGUUUGUUUGUAGUAGAAGGCUGUUUGUUGU [JR_SSNG3_Sub095] (Eterna round: R96, puzzle: Same State NG 3) | 94.7 nM | 107 nM | 131 nM |  |  |  |
| UUUAAACAUGAGGAUCACCCAUGUUUUUUCAUGGGAGGAUAUCUAAGUUAAUUAUAUUAAGGAGAAGGCCUAUUUU [× ×•×ª×• ×ž×“×™× ×” × ×—×ª-05] (puzzle: Same State 1) |  |  |  | 111 nM | 48.8 nM | 53.1 nM |
| UUUAAACAUGAGGAUCACCCAUGUUUUUUCAUGGGAGGAUAUCUGAGUUAAUUAUAUUAAGGAGAAGGCCUAUUUU [× ×•×ª×• ×ž×“×™× ×” × ×—×ª-01] (puzzle: Same State 1) |  |  |  | 102 nM | 38.6 nM | 75.9 nM |
| UUUAAACAUGAGGAUCACCCAUGUUUUUUUAUGGGAGGAUAUCUAAGUUAAUUAUAUUAAGGAGAAGGCCUAUUUU (Eterna round: R96, puzzle: Same State 1) | 28.1 nM | 136 nM | 145 nM |  |  |  |
| UUUAAACAUGAGGAUCACCCAUGUUUUUUUAUGGGAGGAUAUCUAAGUUAAUUAUAUUAAGGAGAAGGCCUAUUUU [× ×•×ª×• ×ž×“×™× ×” × ×—×ª-04] (puzzle: Same State 1) |  |  |  |  | 124 nM |  |
| UUUAGAUUCAGAGGAUAUUGAUGUUGUAAGUAACAAGAAGGCUGAAUGGUUAGAAUUGUUUAUUAACAUGAGGAUCACCCAUGU [JR_SSNG1_Sub009] (Eterna round: R96, puzzle: Same State NG 1) | 17 nM | 17.1 nM | 20.8 nM |  |  |  |
| UUUAGCGUUACAGGAUAUGGUGAGGAUCACCCACUAGAAGGGUAAACAUGUGCGUCGGACAUGAGGAUCACCCAUGUAGGGCGU (Eterna round: R96, puzzle: Same State NG 1) | 16.5 nM | 22.2 nM | 35.2 nM |  |  |  |
| UUUAGUUGCGGGCAGGAUAUGUAUUAAAAUACAUGAGGAUCACCCAUGUGCGGGUAUAACACCCGAUAGAAGGGCCAAUCGCGAC [Laonerce - 11] (puzzle: Same State 2) |  |  |  | 20.9 nM | 53.6 nM | 71.9 nM |
| UUUCUCAUGUAAGGAUAUGCAGCCGUUUCGGCUGCAGAAGGUACUAUAAUACAUGAGGAUCACCCAUGUCUCUAUUAUUUAGUU [JL SSNG1 1.44] (Eterna round: R96, puzzle: Same State NG 1) | 84.7 nM | 39.9 nM | 47.1 nM |  |  |  |
| UUUCUCAUGUAAGGAUAUGCAGCCGUUUCGGCUGCAGAAGGUACUAUAAUACAUGAGGAUCACCCAUGUCUCUCGCAUUGCGAG [JL SSNG1 1.48] (Eterna round: R96, puzzle: Same State NG 1) | 263 nM | 28.9 nM | 62 nM |  |  |  |
| UUUGCAUGACGAGGAUAUCAUUUAUAUCUUGAUUGAGAAGGCGUUCUUUUUUUUACCUAACAUGAGGAUCACCCAUGUGACAGU [JR_SSNG1_Sub050] (Eterna round: R96, puzzle: Same State NG 1) | 14.1 nM | 13.4 nM | 16.1 nM |  |  |  |
| UUUGGGUGGCUGGAGGAUAUCCUGGUUGUUACAUGAGGAUCACCCAUGUGCCGCGCGGUGCGCUGGGAGAAGGCCGGCGGCCGUU (puzzle: Same State 2) |  |  |  | 28.9 nM | 61.1 nM | 141 nM |
| UUUUAUUUUUGGGUGCAAGCUUUUUGCUUACAUGAGGAUCACCCAUGUUUUUAUUUUUUAUUUUUAUUUUUAUUUUU (puzzle: Sensor for hsa-mir-208a) |  |  |  | 51.8 nM | 60.3 nM | 86.7 nM |
